In patent US10202593B2, “Evolved sortases and uses thereof” (President and Fellows of Harvard College, priority 2013, dated 2019):

B1: eSrtA(2A-9): P94R, S102C, A104H, E105D, K138P, K152I, N160K, K162H, T164N, D165A, K173E, I182V, K190E, T196S (protein)
chain: QAKPQIPKDKSKVAGYIEIPDADIKEPVYPGPATREQLNRGVCFHDENESLDDQNISIAGHTFIDRPNYQFTNLKAAKPGSMVYFKVGNETRIYKMTSIRKVHPNAVEVLDEQEGKDKQLTLVTCDDYNEETGVWESRKIFVATEVK
B2: eSrtA (protein)
chain: QAKPQIPKDKSKVAGYIEIPDADIKEPVYPGPATREQLNRGVSFAEENESLDDQNISIAGHTFIDRPNYQFTNLKAAKKGSMVYFKVGNETRKYKMTSIRNVKPTAVEVLDEQKGKDKQLTLITCDDYNEETGVWETRKIFVATEVK

Test system: SUMO-TEV site-FGF1-LPESG-His6
Assay: FGF dual labeling / circularization of GGG-FGF-LPESG
Assay type: biochemical
Conditions: 0.2 eq enzyme, 10 or 100 μM Btn-LAETG, 4 hours
Method: SUMO-TEV site-FGF1-LPESG-His6 (SEQ ID NO: 27), 0.5 eq TEV protease, and either 0.2 eq eSrtA or eSrtA(2A-9) were incubated in the presence of 10 or 100 μM Btn-LAETG (SEQ ID NO: 5) for 4 hours. The protein contains a GGG near its N-terminus masked by a TEV protease cleavage site, and a LPESG (SEQ ID NO: 3) near its C-terminus to serve as a substrate for downstream conjugation. In situ digestion of the TEV cleavage site exposes an N-terminal GGG, which in theory can serve as the substrate for subsequent conjugation with an LAETG-containing peptide (SEQ ID NO: 5). […] His6: SEQ ID NO: 6.
SUMO-TEV-FGF-LPESG-His6 (SEQ ID NO: 27) conjugates were treated with 0.2 eq eSrtA(4S-9), 1 mM GGG-PEG and 10 mM CaCl2 in TBS and incubated at room temperature at 500 μL final volumes. These samples were then quenched by the addition of 100 μM H2N-LPESGG (SEQ ID NO: 38) peptide and 100 μL of pre-equilibrated Ni-NTA resin slurry in TBS, then incubated on ice for 15 minutes. This mixture was then passed through a 0.2 μm spin filter, diluted 1:10 into PBS+10 μM H2N-LPESGG (SEQ ID NO: 38) peptide, and concentrated against a 10 kDa MWCO spin concentrator to a final volume of 400 μL. This process was repeated five times to afford the crude SUMO-TEV-FGF-LPESGGG-PEG (SEQ ID NO: 39) conjugates. […] Protein concentrations were determined by BCA assay. […]

| Molecule | circularization of GGG-FGF-LPESG |
| --- | --- |
| B1 | does not generate detectable levels of circularized GGG-FGF protein |
| B2 | resulting in circularization |
